In PMC4601075, “Specific binding of eukaryotic ORC to DNA replication origins depends on highly conserved basic residues” (Scientific Reports, 2015):

Tests used:
ORC (ScORC, ORC hexamer) [1] = molecular target: T1, ORC (ScORC, ORC hexamer) (Saccharomyces cerevisiae, UniProt P54784+P54791); test: nitrocellulose filter binding, Scatchard plot
T1 construct: gene ORC1; with Origin recognition complex subunit 2; Origin recognition complex subunit 3; Origin recognition complex subunit 5; Origin recognition complex subunit 6
Description: (§1) nitrocellulose filter binding, Scatchard plot on ORC (ScORC, ORC hexamer)

ORC (ScORC, ORC hexamer) [2] = molecular target: T2, ORC (ScORC, ORC hexamer) (Saccharomyces cerevisiae, UniProt P54784+P54791, P54784:K362A); test: nitrocellulose filter binding, Scatchard plot
T2 construct: gene ORC1; with Origin recognition complex subunit 2; Origin recognition complex subunit 3; Origin recognition complex subunit 5; Origin recognition complex subunit 6
Description: as §1

ORC (ScORC, ORC hexamer) [3] = molecular target: T3, ORC (ScORC, ORC hexamer) (Saccharomyces cerevisiae, UniProt P54784+P54791, P54784:R367A); test: nitrocellulose filter binding, Scatchard plot
T3 construct: gene ORC1; with Origin recognition complex subunit 2; Origin recognition complex subunit 3; Origin recognition complex subunit 5; Origin recognition complex subunit 6
Description: as §1

[4] = system: GH-Orc1 301-400 (Saccharomyces cerevisiae); test: EMSA; conditions: competitor DNA; 25 mM HEPES-KOH pH 7.6, 100 mM K glutamate, 5 mM Mg acetate, 5 mM CaCl2, 5 mM DTT, 5% glycerol, 0.1% Triton X-100, 2 mg/ml BSA, 1 mM ATP; 1.6 nM dsDNA or 3 nM …; scale: fold lower affinity than ORC hexamer
[5] = molecular target: ORC-1K362A hexamer K362A (Saccharomyces cerevisiae) (UniProt P54784+P32833+P54790+P54791+P50874+P38826); test: EMSA; conditions: 25 mM HEPES-KOH pH 7.6, 100 mM K glutamate, 5 mM Mg acetate, 5 mM CaCl2, 5 mM DTT, 5% glycerol, 0.1% Triton X-100, 2 mg/ml BSA, 1 mM ATP; 1.6 nM dsDNA or 3 nM …
[6] = molecular target: ORC-1R367A hexamer R367A (Saccharomyces cerevisiae) (UniProt P54784+P32833+P54790+P54791+P50874+P38826); test: EMSA; conditions: 25 mM HEPES-KOH pH 7.6, 100 mM K glutamate, 5 mM Mg acetate, 5 mM CaCl2, 5 mM DTT, 5% glycerol, 0.1% Triton X-100, 2 mg/ml BSA, 1 mM ATP; 1.6 nM dsDNA or 3 nM …
ORC-1K362A hexamer = ORC-1K362A hexamer (Saccharomyces cerevisiae, UniProt P54784;P32833;P54790;P54791;P50874;P38826 1-914;1-620;1-616;1-529;1-479;1-435, K362A); test: EMSA; 1 mM ATP, competitor dsDNA; 25 mM HEPES-KOH pH 7.6, 100 mM K glutamate, 5 mM Mg acetate, 5 mM CaCl2, 5 mM DTT, 5% glycerol, 0.1% Triton X-100, 2 mg/ml BSA, 1 mM ATP; 1.6 nM dsDNA or 3 nM ssDNA, 300 ng GC-rich competitor in 5 ul, 10 min, room temperature; conditions: protein: recombinant; tags: TEV-His on Orc1; copies: 1;1;1;1;1;1; label: 3' Cy5-ddUTP (terminal transferase)
ORC-1R367A hexamer = ORC-1R367A hexamer (Saccharomyces cerevisiae, UniProt P54784;P32833;P54790;P54791;P50874;P38826 1-914;1-620;1-616;1-529;1-479;1-435, R367A); test: as above; conditions: protein: recombinant; tags: TEV-His on Orc1; copies: 1;1;1;1;1;1; label: 3' Cy5-ddUTP (terminal transferase)
[7] = molecular target: ORC hexamer wild-type (Orc1-TEV-His/Orc2/3/4/5/6) (Saccharomyces cerevisiae, UniProt P54784;P32833;P54790;P54791;P50874;P38826 1-914;1-620;1-616;1-529;1-479;1-435); test: as above; conditions: protein: recombinant; tags: TEV-His on Orc1 (C-terminal by name); copies: 1;1;1;1;1;1; label: 3' Cy5-ddUTP (terminal transferase)
[8] = molecular target: T4, S. cerevisiae origin recognition complex (ORC) hexamer, wild type (S. cerevisiae, UniProt P54784 1-914; P32833 1-620; P54790 1-616; P54791 1-529; P50874 1-479; P38826 …); test: native gel or EMSA; ORC and Cdc6 incubated with Cy5-labeled ARS1 DNA (1.6 nM) and 300 ng GC-rich competitor, 10 min at room temperature, 25 mM HEPES-KOH pH 7.6, 100 mM potassium glutamate, 1 mM ATP; Cdc6-dependent supershift of the ORC-ARS1 complex on a 4% polyacrylamide gel; conditions: both partners purified
T4 construct: Orc1, largest subunit of the S. cerevisiae origin recognition complex; expressed from ORC1-TEV-His; Orc2, subunit of the S. cerevisiae origin recognition complex; Orc3, subunit of the S. cerevisiae origin recognition complex; Orc4, subunit of the S. cerevisiae origin recognition complex; Orc5, subunit of the S. cerevisiae origin recognition complex; Orc6, subunit of the S. cerevisiae origin …

T2 sequence (P54784 whole entry K362A): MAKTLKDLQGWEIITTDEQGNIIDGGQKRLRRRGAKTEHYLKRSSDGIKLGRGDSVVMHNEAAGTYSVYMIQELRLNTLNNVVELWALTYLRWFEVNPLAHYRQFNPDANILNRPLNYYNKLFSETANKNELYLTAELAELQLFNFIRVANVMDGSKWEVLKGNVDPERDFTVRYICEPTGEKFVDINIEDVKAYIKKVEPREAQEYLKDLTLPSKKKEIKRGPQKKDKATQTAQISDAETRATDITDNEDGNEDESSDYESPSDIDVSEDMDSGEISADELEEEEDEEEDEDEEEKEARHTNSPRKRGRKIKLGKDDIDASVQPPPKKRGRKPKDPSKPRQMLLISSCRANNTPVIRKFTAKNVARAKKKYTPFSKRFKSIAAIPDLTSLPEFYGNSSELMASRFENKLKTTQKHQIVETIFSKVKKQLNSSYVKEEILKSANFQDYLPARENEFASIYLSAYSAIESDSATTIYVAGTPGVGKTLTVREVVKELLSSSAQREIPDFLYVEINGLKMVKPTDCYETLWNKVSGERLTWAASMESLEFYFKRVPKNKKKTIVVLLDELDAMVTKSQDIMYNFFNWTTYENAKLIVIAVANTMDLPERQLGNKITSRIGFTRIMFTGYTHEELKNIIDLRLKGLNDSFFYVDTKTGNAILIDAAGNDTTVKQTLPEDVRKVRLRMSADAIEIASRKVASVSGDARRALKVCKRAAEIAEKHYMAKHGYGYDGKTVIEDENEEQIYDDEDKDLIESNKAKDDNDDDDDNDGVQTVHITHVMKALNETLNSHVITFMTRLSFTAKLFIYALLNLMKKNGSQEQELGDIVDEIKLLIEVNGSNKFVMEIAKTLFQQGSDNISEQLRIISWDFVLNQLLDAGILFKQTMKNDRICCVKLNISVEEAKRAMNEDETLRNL
T2 sequence (P54791 whole entry): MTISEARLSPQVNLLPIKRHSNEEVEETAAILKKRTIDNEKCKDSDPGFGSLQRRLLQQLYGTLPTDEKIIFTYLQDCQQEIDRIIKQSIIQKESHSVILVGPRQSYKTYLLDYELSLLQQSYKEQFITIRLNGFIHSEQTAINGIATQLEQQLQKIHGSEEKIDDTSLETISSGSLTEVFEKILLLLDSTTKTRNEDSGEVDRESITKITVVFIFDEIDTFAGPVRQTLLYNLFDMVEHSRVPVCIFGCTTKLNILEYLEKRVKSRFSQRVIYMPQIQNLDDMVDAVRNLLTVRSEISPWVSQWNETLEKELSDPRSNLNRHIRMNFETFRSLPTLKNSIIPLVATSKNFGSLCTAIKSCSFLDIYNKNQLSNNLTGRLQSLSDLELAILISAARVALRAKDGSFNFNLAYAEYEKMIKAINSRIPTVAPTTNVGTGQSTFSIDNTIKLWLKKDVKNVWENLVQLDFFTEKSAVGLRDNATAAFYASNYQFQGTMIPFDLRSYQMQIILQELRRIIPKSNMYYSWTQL
T2 sequence (P32833 whole entry partner): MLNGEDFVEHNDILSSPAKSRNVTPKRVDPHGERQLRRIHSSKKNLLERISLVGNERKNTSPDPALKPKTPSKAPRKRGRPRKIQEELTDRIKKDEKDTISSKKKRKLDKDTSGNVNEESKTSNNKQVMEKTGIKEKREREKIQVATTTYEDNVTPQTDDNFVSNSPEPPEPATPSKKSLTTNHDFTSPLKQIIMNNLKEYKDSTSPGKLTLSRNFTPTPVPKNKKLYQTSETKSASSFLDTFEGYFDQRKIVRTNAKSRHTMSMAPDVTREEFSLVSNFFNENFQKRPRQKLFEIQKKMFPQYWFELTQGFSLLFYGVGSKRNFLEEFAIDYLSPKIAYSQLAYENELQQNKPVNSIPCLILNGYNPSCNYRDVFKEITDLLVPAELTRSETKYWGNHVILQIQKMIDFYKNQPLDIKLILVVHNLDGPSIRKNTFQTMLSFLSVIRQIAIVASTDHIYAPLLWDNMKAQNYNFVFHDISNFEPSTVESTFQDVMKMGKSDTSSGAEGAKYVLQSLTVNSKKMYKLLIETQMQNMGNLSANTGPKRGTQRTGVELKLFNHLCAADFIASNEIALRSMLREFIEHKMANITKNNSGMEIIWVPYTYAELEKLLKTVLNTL
T2 sequence (P54790 2-616 partner): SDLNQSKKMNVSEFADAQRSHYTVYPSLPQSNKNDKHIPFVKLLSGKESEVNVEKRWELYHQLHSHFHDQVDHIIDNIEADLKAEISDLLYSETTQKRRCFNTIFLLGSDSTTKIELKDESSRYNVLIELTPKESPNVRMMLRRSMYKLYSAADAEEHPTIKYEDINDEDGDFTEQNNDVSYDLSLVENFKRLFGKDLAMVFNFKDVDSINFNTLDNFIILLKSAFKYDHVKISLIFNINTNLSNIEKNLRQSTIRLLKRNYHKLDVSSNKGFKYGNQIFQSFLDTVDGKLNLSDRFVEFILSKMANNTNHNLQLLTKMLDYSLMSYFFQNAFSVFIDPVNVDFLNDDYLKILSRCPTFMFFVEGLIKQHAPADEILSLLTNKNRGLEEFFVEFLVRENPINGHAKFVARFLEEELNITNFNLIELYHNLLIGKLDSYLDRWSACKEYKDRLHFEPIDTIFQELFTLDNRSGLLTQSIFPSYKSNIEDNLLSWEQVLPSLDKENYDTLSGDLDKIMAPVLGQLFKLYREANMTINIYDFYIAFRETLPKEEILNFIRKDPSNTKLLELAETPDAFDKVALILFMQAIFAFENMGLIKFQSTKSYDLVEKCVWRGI
T2 sequence (P50874 whole entry partner): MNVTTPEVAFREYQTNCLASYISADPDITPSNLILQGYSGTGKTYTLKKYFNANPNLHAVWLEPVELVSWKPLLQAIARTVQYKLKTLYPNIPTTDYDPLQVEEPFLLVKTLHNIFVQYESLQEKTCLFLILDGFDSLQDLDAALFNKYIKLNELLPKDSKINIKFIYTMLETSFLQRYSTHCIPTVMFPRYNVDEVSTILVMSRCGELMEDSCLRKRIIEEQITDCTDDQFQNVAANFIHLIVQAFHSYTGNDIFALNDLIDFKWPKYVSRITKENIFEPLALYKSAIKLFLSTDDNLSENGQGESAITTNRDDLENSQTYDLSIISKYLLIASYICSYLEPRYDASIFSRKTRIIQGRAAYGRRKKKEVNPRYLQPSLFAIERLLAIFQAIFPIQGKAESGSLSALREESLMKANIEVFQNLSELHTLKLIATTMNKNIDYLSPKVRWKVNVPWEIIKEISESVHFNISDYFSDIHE
T2 sequence (P38826 whole entry partner): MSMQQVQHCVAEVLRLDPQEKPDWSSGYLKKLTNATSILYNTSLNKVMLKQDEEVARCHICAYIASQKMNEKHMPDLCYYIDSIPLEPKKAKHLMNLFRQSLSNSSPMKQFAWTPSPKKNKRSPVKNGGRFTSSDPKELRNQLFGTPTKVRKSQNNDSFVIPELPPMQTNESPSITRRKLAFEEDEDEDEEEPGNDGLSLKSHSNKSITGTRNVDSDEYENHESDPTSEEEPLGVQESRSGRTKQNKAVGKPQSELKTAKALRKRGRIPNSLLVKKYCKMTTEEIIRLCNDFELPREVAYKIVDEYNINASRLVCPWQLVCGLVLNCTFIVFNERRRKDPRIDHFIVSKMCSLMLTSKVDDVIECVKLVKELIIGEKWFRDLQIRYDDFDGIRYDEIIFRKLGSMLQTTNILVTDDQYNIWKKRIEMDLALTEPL
T1 sequence (P54784 whole entry): as the sequence (P54784 whole entry K362A) above, with A362K counted along it
T1 sequence (P54791 whole entry): as the sequence (P54791 whole entry) above
T1 sequence (P32833 whole entry partner): as the sequence (P32833 whole entry partner) above
T1 sequence (P54790 2-616 partner): as the sequence (P54790 2-616 partner) above
T1 sequence (P50874 whole entry partner): as the sequence (P50874 whole entry partner) above
T1 sequence (P38826 whole entry partner): as the sequence (P38826 whole entry partner) above
T3 sequence (P54784 whole entry R367A): as the sequence (P54784 whole entry K362A) above, with A362K, R367A counted along it
T3 sequence (P54791 whole entry): as the sequence (P54791 whole entry) above
T3 sequence (P32833 whole entry partner): as the sequence (P32833 whole entry partner) above
T3 sequence (P54790 2-616 partner): as the sequence (P54790 2-616 partner) above
T3 sequence (P50874 whole entry partner): as the sequence (P50874 whole entry partner) above
T3 sequence (P38826 whole entry partner): as the sequence (P38826 whole entry partner) above

`Nc1ncnc2c1ncn2[C@@H]1O[C@H](COP(=O)(O)OP(=O)(O)OP(=O)(O)O)[C@@H](O)[C@H]1O` [ATP] was tested, and the Kd (ORC (ScORC, ORC hexamer) [1]) was 31 nM, the Kd (ORC (ScORC, ORC hexamer) [2]) was 35 nM and the Kd (ORC (ScORC, ORC hexamer) [3]) was 32 nM.

ARS1 wild-type fragment showed a binding signal [4] greater than 100.

For “CCCACATGTCAATTTAGTATATTACTGTATATCTAGTTCATTCTTCAAAATAAAGAATGCATAACCATTTTTTTATGTTTTTTCCGGAATTGGCTAAATTCACAAAAAAAAAGAGCATAAAGCGAATTGAATTGTCTCGCCAAGAAAACGCACTGAGAGGACGATTGATCCTCCAGACAAGATCGGAATTTTTACTTTTCTGTTTTTAACGACGTCGG (double strand) [ARS609 fragment]”, the binding [5] was “binds more weakly” and the binding [6] was “binds more weakly”.

In the case of “CCGACGTCAGATCTTAATTTATCTCATGAAGTAATGATACCTCAGCGATGTGCTCGCTCGTTAGTATGCTTCATAAATTCATTATTATTTTTTTTTGGAAGTGTTTTTCGACAAAAGTTGCATTTTTACGAAGGATATGTAAACTCAAGAAGTACTAAATAAATATAAATACAATTCGAAAATTTGAAAAAAGTAGGAGACAACACTTTCCTTCCTCACGAAGAAGTTAAGCTTACATGTGGG (double strand) [ARS306 fragment]”, the binding [5] is reported as “binds more weakly” and the binding [6] is reported as “binds more weakly”.

B1: DL11 (ssDNA)
DNA: GTTACCATGGCATCGAGTTCTTCAACAAGACTACAATGG
B1: binds (ORC-1K362A hexamer); binds (ORC-1R367A hexamer); binds [7].

B2: ScCdc6 (natural protein, S. cerevisiae, UniProt P09119 1-513, looked up)
chain: MSAIPITPTKRIRRNLFDDAPATPPRPLKRKKLQFTDVTPESSPEKLQFGSQSIFLRTKALLQKSSELVNLNSSDGALPARTAEYEQVMNFLAKAISEHRSDSLYITGPPGTGKTAQLDMIIRQKFQSLPLSLSTPRSKDVLRHTNPNLQNLSWFELPDGRLESVAVTSINCISLGEPSSIFQKIFDSFQDLNGPTLQIKNMQHLQKFLEPYHKKTTFVVVLDEMDRLLHANTSETQSVRTILELFLLAKLPTVSFVLIGMANSLDMKDRFLSRLNLDRGLLPQTIVFQPYTAEQMYEIVIQKMSSLPTIIFQPMAIKFAAKKCAGNTGDLRKLFDVLRGSIEIYELEKRFLLSPTRGSLNSAQVPLTPTTSPVKKSYPEPQGKIGLNYIAKVFSKFVNNNSTRTRIAKLNIQQKLILCTIIQSLKLNSDATIDESFDHYIKAITKTDTLAPLQRNEFLEICTILETCGLVSIKKTKCKGKTKRFVDKIDVDLDMREFYDEMTKISILKPFLH
notes: Cdc6 of S. cerevisiae; source: E. coli, overexpressed and purified
B2: binds [8].
